# Measurements: US20230265179A1 (TWIST BIOSCIENCE, published 2023)
# T1: CD40L (UniProt P29965 113-261, limits assumed)
# T1 construct: SPR analyte
# T1 sequence (looked up): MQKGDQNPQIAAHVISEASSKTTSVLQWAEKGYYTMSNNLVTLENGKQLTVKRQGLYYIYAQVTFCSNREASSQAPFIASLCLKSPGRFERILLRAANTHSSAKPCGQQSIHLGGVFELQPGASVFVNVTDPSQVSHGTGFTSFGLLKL
# T2: CD40L over-expressed on Expi293 cells (UniProt P29965 1-261, limits assumed)
# T2 construct: whole, on cells; also called cytokine over-expressing Expi293 cells
# T2 sequence (looked up): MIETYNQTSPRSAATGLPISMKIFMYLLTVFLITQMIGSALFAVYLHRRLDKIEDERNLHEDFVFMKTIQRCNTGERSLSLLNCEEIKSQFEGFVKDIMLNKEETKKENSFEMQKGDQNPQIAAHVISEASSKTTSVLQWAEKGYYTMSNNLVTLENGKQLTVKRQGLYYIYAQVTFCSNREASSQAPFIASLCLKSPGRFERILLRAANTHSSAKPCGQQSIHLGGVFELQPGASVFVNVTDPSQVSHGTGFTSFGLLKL
# T3: IL1RL1 over-expressed on Expi293 cells (UniProt Q01638 19-556, limits assumed)
# T3 construct: whole, on cells; Target of the flow cytometry MFI ratio (over-expressing cells over parent cells); also called cytokine over-expressing Expi293 cells
# T3 sequence (looked up): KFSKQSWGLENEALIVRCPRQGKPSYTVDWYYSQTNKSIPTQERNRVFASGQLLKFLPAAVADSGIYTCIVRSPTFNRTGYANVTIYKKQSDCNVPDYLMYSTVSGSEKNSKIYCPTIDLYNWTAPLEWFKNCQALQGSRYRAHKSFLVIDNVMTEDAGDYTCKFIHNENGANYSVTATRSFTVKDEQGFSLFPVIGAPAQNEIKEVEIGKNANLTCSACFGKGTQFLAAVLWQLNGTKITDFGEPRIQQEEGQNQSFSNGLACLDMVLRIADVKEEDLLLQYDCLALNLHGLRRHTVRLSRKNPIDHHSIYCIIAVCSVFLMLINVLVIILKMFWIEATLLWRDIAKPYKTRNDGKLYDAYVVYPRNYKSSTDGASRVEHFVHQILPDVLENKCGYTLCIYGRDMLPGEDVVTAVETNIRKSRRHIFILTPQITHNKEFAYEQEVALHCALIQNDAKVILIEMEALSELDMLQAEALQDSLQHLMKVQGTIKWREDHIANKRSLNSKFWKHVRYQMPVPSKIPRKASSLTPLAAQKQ
# What was measured:
# [1] = molecular target: T1, CD40L; test: SPR (Carterra LSA), antibody amine-coupled, 1:1 model
# Description: SPR experiments were performed on a Carterra LSA SPR biosensor equipped with a HC30M chip at 25° C. in HBS-TE. Antibodies were diluted to 10 μg/mL and amine-coupled to the sensor chip by EDC/NHS activation, followed by ethanolamine HCl quenching. Increasing concentrations of analyte were flowed over the sensor chip in HBS-TE with 0.5 mg/mL BSA with 5-minute association and 15-minute dissociation. Following each injection cycle the surface was regenerated with 2× 30-second injections of IgG elution buffer (Thermo). Data were analyzed in Carterra's Kinetics Tool software with 1:1 binding model.
# [2] = molecular target: T2, CD40L over-expressed on Expi293 cells; test: flow cytometry, 100 nM antibody, CD40L-Expi293 vs parent Expi293 cells;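 further: ratio is the mean fluorescence intensity on CD40L-overexpressing Expi293 cells divided by the mean fluorescence intensity on parental Expi293 cells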
# Description: (§1) All incubations and washes were in buffer containing PBS+1% BSA. MFI Ratio is defined by the mean fluorescence intensity (MFI) of the cytokine over-expressing Expi293 cell over the Expi293 parent cell. […] EC50 was calculated in GraphPad Prism.
# [3] = molecular target: T3, IL1RL1 over-expressed on Expi293 cells; test: flow cytometry, 100 nM antibody, over-expressing Expi293 / parent cells
# Description: as §1
Binder,Kd [1] [nM],koff [1] [s⁻¹],kon [1] [M⁻¹ s⁻¹],100 nM FACS (MFI Ratio) [2] [ratio],100 nM FACS (MFI Ratio) [3] [MFI ratio]
CD40L-46 (VHH) VHH: EVQLVESGGGLVQPGGSLRLSCAASGFTFSRYEMGWFRQAPGKEREWVASLYLNGDYPYYADSVKGRFTISADNSKNTAYLQMNSLKPEDTAVYYCAIPHGIAGRITWGQGTLVTVSS,11.5,0.000576,50200,45.7,
CD40L-55 (VHH) VHH: EVQLVESGGGLVQPGGSLRLSCAASGLPFSTLHMGWFRQAPGKEREFVAAISRSGNLKAYADSVKGRFTISADNSKNTAYLQMNSLKPEDTAVYYCAADDYLGGDNWYLGPYDWGQGTLVTVSS,10,0.0001,10000,3.2,
CD40L-47 (VHH) VHH: EVQLVESGGGLVQPGGSLRLSCAASGRTLVNYDMGWFRQAPGKEREFVAAISMSGEDTIYADSVKGRFTISADNSKNTAYLQMNSLKPEDTAVYYCTTGGGTRDYWGQGTLVTVSS,2.38,0.000536,225000,41.8,
"IL1RL1-85 (Fc fusion, not shown: a dimerising Fc or GST, VHH-Fc on IgG2 Fc) VHH: EVQLVESGGGLVQPGGSLRLSCAASGRTFSTAGMGWFRQAPGKEREWVASIITSGSTITPYADSVKGRFTISADNSKNTAYLQMNSLKPEDTAVYYCAVVDLLRGKLWGQGTLVTVSS",,,,,4.47
"IL1RL1-76 (Fc fusion, not shown: a dimerising Fc or GST, VHH-Fc on IgG2 Fc) VHH: EVQLVESGGGLVQPGGSLRLSCAASGSIFTIYAMGWFRQAPGKEREWVASISTSGSTITPYADSVKGRFTISADNSKNTAYLQMNSLKPEDTAVYYCATTEYSGYDAVNYWGQGTLVTVSS",,,,,385
"IL1RL1-34 (Fc fusion, not shown: a dimerising Fc or GST, VHH-Fc on IgG2 Fc) VHH: EVQLVESGGGLVQPGGSLRLSCAASGSTFSNAVMGWFRQAPGKEREFVAVIIDSRTTKYADSVKGRFTISADNSKNTAYLQMNSLKPEDTAVYYCAAVGGATTVTASEWDWGQGTLVTVSS",,,,,476
"IL1RL1-38 (Fc fusion, not shown: a dimerising Fc or GST, VHH-Fc on IgG2 Fc) VHH: EVQLVESGGGLVQPGGSLRLSCAASGFTFSNHIMGWFRQAPGKERELVAVIIDSRTTKYADSVKGRFTISADNSKNTAYLQMNSLKPEDTAVYYCAAVGGATTVTASEWDWGQGTLVTVSS",,,,,1.37
"IL1RL1-55 (Fc fusion, not shown: a dimerising Fc or GST, VHH-Fc on IgG2 Fc) VHH: EVQLVESGGGLVQPGGSLRLSCAASGEIASIIAMGWFRQAPGKERELVAVIIGGGSTNYADSVKGRFTISADNSKNTAYLQMNSLKPEDTAVYYCAAVGGATTVTASEWDWGQGTLVTVSS",,,,,1.6
"IL1RL1-80 (Fc fusion, not shown: a dimerising Fc or GST, VHH-Fc on IgG2 Fc) VHH: EVQLVESGGGLVQPGGSLRLSCAASGRTFSPIAMGWFRQAPGKEREMVAVIIDSRTTKYADSVKGRFTISADNSKNTAYLQMNSLKPEDTAVYYCAAVGGATTVTASEWDWGQGTLVTVSS",,,,,1.49
"IL1RL1-36 (Fc fusion, not shown: a dimerising Fc or GST, VHH-Fc on IgG2 Fc) VHH: EVQLVESGGGLVQPGGSLRLSCAASGSIYSLVAMGWFRQAPGKEREWMGVIAYDGSTYYADSVKGRFTISADNSKNTAYLQMNSLKPEDTAVYYCAAVGGATTVTASEWDWGQGTLVTVSS",,,,,87.7
"IL1RL1-33 (Fc fusion, not shown: a dimerising Fc or GST) VHH: EVQLVESGGGLVQPGGSLRLSCAASGGTFSTHWMGWFRQAPGKEREEVAAISWIIGSTYYADSVKGRFTISADNSKNTAYLQMNSLKPEDTAVYYCATSGSGSPNWGQGTLVTVSS",,,,,504
CD40L-41 (VHH) VHH: EVQLVESGGGLVQPGGSLRLSCAASGSTFSKHHAMGWFRQAPGKERELVASISSDNYTVYADSVKGRFTISADNSKNTAYLQMNSLKPEDTAVYYCAREAANYREPPLWGQGTLVTVSS,8.47,0.000685,80800,15.5,
"IL1RL1-30 (Fc fusion, not shown: a dimerising Fc or GST, VHH-Fc on IgG2 Fc) VHH: EVQLVESGGGLVQPGGSLRLSCAASGDISSIVAMGWFRQAPGKEREWVASISTSGSTITPYADSVKGRFTISADNSKNTAYLQMNSLKPEDTAVYYCAAGAVRYGVSTSPMNYNWGQGTLVTVSS",,,,,515
"IL1RL1-31 (Fc fusion, not shown: a dimerising Fc or GST, VHH-Fc on IgG2 Fc) VHH: EVQLVESGGGLVQPGGSLRLSCAASGFTFRNFGMGWFRQAPGKEREFVALINVGGVAKYADSVKGRFTISADNSKNTAYLQMNSLKPEDTAVYYCTTDARHWGQGTLVTVSS",,,,,311
CD40L-38 (VHH) VHH: EVQLVESGGGLVQPGGSLRLSCAASGVTFSSYDMGWFRQAPGKEREFVAAINWSGGSRSYADSVKGRFTISADNSKNTAYLQMNSLKPEDTAVYYCAIPRFRPYEYDWGQGTLVTVSS,8.61,0.00052,60300,49,
CD40L-35 (VHH) VHH: EVQLVESGGGLVQPGGSLRLSCAASGLTFSSYWMGWFRQAPGKERELVASITDGGSTNYADSVKGRFTISADNSKNTAYLQMNSLKPEDTAVYYCAVQVNGIWAWGQGTLVTVSS,≤ 0.0842,≤ 1e-05,119000,29.5,
CD40L-48 (VHH) VHH: EVQLVESGGGLVQPGGSLRLSCAASGFTFSRYEMGWFRQAPGKEREFVAAVTEGGTTSYADSVKGRFTISADNSKNTAYLQMNSLKPEDTAVYYCAAESLGRWWGQGTLVTVSS,8.48,0.000998,118000,68.4,
CD40L-51 (VHH) VHH: EVQLVESGGGLVQPGGSLRLSCAASGYFASWYYMGWFRQAPGKEREEVATFYTGDGRTYYADSVKGRFTISADNSKNTAYLQMNSLKPEDTAVYYCAAWLNGGNRWGQGTLVTVSS,≤ 0.174,≤ 1e-05,57600,76.6,
CD40L-29 (VHH) VHH: EVQLVESGGGLVQPGGSLRLSCAASGRTFSSYAMGWFRQAPGKEREFVAVIYSSDGSTLYADSVKGRFTISADNSKNTAYLQMNSLKPEDTAVYYCAAEHTLGRPSRSQINYLWGQGTLVTVSS,33.6,0.000801,23800,4.7,
"IL1RL1-32 (Fc fusion, not shown: a dimerising Fc or GST, VHH-Fc on IgG2 Fc) VHH: EVQLVESGGGLVQPGGSLRLSCAASGFTLGDYVMGWFRQAPGKEREFVAVIYTSDGSTYYADSVKGRFTISADNSKNTAYLQMNSLKPEDTAVYYCVVSFSTRGPYWGQGTLVTVSS",,,,,432
CD40L-34 (VHH) VHH: EVQLVESGGGLVQPGGSLRLSCAASGRTISNAAMGWFRQAPGKEREFVAAISFRGDSAIYADSVKGRFTISADNSKNTAYLQMNSLKPEDTAVYYCARDAAGDYYYNLDVWGQGTLVTVSS,9.87,0.000637,64500,76.7,
CD40L-39 (VHH) VHH: EVQLVESGGGLVQPGGSLRLSCAASGGTLDDYVMGWFRQAPGKEREFVASIGRSGNSAVNTDYADSVKGRFTISADNSKNTAYLQMNSLKPEDTAVYYCAREPYSGTYYPRYWGQGTLVTVSS,0.194,6.25e-05,322000,114,
"IL1RL1-29 (Fc fusion, not shown: a dimerising Fc or GST, VHH-Fc on IgG2 Fc) VHH: EVQLVESGGGLVQPGGSLRLSCAASGGFSVYAMGWFRQAPGKEREWVSSTSTGGGGTYYADSVKGRFTISADNSKNTAYLQMNSLKPEDTAVYYCAANVGVTGSYEWGQGTLVTVSS",,,,,431
"IL1RL1-28 (Fc fusion, not shown: a dimerising Fc or GST, VHH-Fc on IgG2 Fc) VHH: EVQLVESGGGLVQPGGSLRLSCAASGRTISRYTMGWFRQAPGKEREFVAGIWSGGYTHYADSVKGRFTISADNSKNTAYLQMNSLKPEDTAVYYCAAVSSNTEIFDWGQGTLVTVSS",,,,,473
"IL1RL1-35 (Fc fusion, not shown: a dimerising Fc or GST, VHH-Fc on IgG2 Fc) VHH: EVQLVESGGGLVQPGGSLRLSCAASGLTISSLTMGWFRQAPGKEREFVAGIWSGGYTHYADSVKGRFTISADNSKNTAYLQMNSLKPEDTAVYYCAAVSSNTEIFDWGQGTLVTVSS",,,,,514
